# Laboratory results taken from patent US20140186359A1 (TORAY INDUSTRIES, published 2014).
# T1: human CAPRIN-1 expressed on the surface of human cancer cells (human, UniProt Q14444 2-709)
# T1 sequence: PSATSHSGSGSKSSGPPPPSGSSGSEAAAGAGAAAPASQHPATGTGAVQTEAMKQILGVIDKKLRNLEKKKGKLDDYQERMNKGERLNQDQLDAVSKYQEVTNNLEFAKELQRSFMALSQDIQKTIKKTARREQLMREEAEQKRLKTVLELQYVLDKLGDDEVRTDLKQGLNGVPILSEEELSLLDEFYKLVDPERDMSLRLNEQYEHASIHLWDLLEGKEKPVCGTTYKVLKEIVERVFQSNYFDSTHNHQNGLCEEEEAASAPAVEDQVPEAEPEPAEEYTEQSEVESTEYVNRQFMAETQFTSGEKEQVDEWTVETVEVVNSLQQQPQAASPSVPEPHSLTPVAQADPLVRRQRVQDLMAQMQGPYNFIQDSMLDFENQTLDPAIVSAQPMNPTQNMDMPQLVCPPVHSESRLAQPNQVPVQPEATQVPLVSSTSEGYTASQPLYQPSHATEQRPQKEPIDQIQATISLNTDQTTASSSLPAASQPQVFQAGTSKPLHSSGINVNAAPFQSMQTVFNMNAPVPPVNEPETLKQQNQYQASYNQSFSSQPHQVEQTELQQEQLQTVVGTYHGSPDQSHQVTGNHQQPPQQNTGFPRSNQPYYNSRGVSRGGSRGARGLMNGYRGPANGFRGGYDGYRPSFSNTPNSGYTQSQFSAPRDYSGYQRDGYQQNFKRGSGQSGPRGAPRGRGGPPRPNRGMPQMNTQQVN
# T2: partial CAPRIN-1 polypeptide consisting of the amino acid sequence of SEQ ID NO: 5 (human)
# T2 construct: Peptide coupled to Immobilizer Amino ELISA plate
# T2 peptide: VFNMNAPVPPVNEPETLK
# B1: human-mouse chimeric comparative monoclonal antibody 8 (antibody, human IgG1, kappa)
# heavy: not shown
# light: EFHAVSLGQRATISCRASESVDSYGNSFMHWYQQKPGQPPKLLIYRASNLESGIPARFSGSGSRTDFTLTINPVEADDVATYYCQQSNEDPGRSEVVPSWRSNKTVAAPSVFIFPPSDEQLKSGTASVVCLLNNFYPREAKVQWKVDNALQSGNSQESVTEQDSKDSTYSLSSTLTLSKADYEKHKVYACEVTHQGLSSPVTKSFNRGEC
# B2: human-mouse chimeric comparative monoclonal antibody 10 (antibody, human IgG1, kappa)
# heavy: not shown
# light: RLPFYSLEQRATISYRASKNVSTSGYSYMHWNQQKPGQPPKLLIYLVSNLESGVPARFSGSGSGTDFTLNIHPVEEEDAATYYCQHIRELTRSELVPSWKSNTVAAPSVFIFPPSDEQLKSGTASVVCLLNNFYPREAKVQWKVDNALQSGNSQESVTEQDSKDSTYSLSSTLTLSKADYEKHKVYACEVTHQGLSSPVTKSFNRGEC
# B3: human-mouse chimeric comparative monoclonal antibody 6 (antibody, human IgG1, kappa)
# heavy: not shown
# light: DRVSITCKASQNVRTAVAWYQQKPRQSPKALIYLASNRDTGLPDRFPGRGSGTDFTLNITNVQSEDLEDYFCLQHCNYPNEFRGCTKVPITVAAPSVFIFPPSDEQLKSGTASVVCLLNNFYPREAKVQWKVDNALQSGNSQESVTEQDSKDSTYSLSSTLTLSKADYEKHKVYACEVTHQGLSSPVTKSFNRGEC
# B4: human-mouse chimeric comparative monoclonal antibody 7 (antibody, human IgG1, kappa, V domains shown)
# VH: LQESGAELARPGASVKLSCKASGYTFTSYWMQWVKQRPGQGLEWIGAIYPGDGDTRYTQKFKGKATLTADKSSSTAYMQLSSLASEDSAVYYCARGEYGNYFAYWGQGTTVTVSS
# VL: TSDASLGERVTITCKASQDINSYLSWFQQKPGKSPKTLIYRANRLVDGVPSRFSGSGSGQDYSLTISSLEYEDMGIYYCLQYDEFPLTFGGGTKLEIKQ
# B5: mouse monoclonal antibody #3 (antibody, V domains shown)
# VH: GGGLVKPGGSLKLSCAASGFTFSSYGMSWVRQTPEKRLEWVATISSGGSYTYYPDSVKGRFTISRDNAKNTLYLQMSSLRSEDTAMYYCASLASYYFDYWGQGTTLTVSS
# VL: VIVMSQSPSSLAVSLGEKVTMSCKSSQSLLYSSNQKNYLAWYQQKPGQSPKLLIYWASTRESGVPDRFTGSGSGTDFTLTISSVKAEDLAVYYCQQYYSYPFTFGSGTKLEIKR
# notes: Mouse hybridoma antibody; detected with anti-mouse IgG; also called anti-CAPRIN-1 monoclonal antibody #3
# B6: mouse monoclonal antibody #1 (antibody, V domains shown)
# VH: GPGLVQPSQSLSITCTVSGFSLTTYDLHWVRQSPGKGLEWLGVIWSGGSTDYNAAFISRLSISKDNSKSQVFFKMNSLQANDTAIYYCARNYGYSAWFAYWGQGTLVTVSA
# VL: DVLMTQTPLSLPVSLGDQASISCRSSQSIVHSNGNTYLEWYLQKPGQSPKLLIYKVSNRFSGVPDRFSGSGSGTDFTLKISRVEAEDLGVYYCFQGSHVPLTFGAGTKLELKR
# notes: Mouse hybridoma antibody; detected with anti-mouse IgG; also called anti-CAPRIN-1 monoclonal antibody #1
# B7: mouse monoclonal antibody #2 (antibody, V domains shown)
# VH: B5 VH
# VL: DVQMIQSPSSLSASLGDIVTMTCQASQGTSINLNWFQQKPGKAPKLLIYGASSLEDGVPSRFSGSCFGTDFTLTISSLEDEDMATYFCLQHSYLPPLTFGAGTKLELKR
# notes: Mouse hybridoma antibody; detected with anti-mouse IgG; also called anti-CAPRIN-1 monoclonal antibody #2
# B8: chicken monoclonal antibody #3 (antibody, V domains shown)
# VH: AVTLDESGGGLQTPGGGLSLVCKGSGFTFSSFGMFWVRQAPGKGLEFVASISDNGRSTYYGSAVKGRATISRDDGQSTVRLQLNNLRAEDTGTYYCAKNAYVGRGCCFSYSIDAWGHGTEVIVS
# VL: ALTQPASVSVNPGETVKITCSGGGSSSDAYGWYQQKSPGSAPVTLIYNGSNRPSHIPSRFSGSTSGSTNTLTITGVQVEDEAIYFCGSTDTSTSVGIFGAGTTLTV
# notes: Chicken hybridoma antibody; also called anti-CAPRIN-1 chicken monoclonal antibody #3
# B9: chicken monoclonal antibody #4 (antibody, V domains shown)
# VH: AVTLDESGGGLQTPGGAVSLVCKGSGFTFSSYGMGWVRQAPGKGLEYVAAIRKDGSTNYGPAVKGRATISRDNGQSTVRLQLSNLRAEDTATYYCAKRSHTGVNAAKIDAWGRGTEVIVS
# VL: ALTQPASVSANPGETVKITCSGASHNYGWFQQKSPGSAPVTVIYSNDKRPSDIPSRFSGSKSGSTATLTITGVQADDEAVYFCGGYNIYGPTFGAGTTLTV
# notes: Chicken hybridoma antibody; also called anti-CAPRIN-1 chicken monoclonal antibody #4
# B10: chicken monoclonal antibody #1 (antibody, V domains shown)
# VH: AVTLDESGGGLQTPGGALSLVCKASGFTFRSHSMFWVRQAPGKGLEYVAGIYGVGRSIRYGSAVKGRATMSRDNGQSTVRLQLNNLRAEDTATYYCAKSGYFSNSRYWDSGAYFIDAWGHGTEVIVS
# VL: ALTQPASVSANPGETVEITCSGGYSNYGWYQQKSPGSAPVTVIYYNDKRPSDIPSRFSGSKSGSTATLTITGVQAEDEAVYFCGGYDSSTDAGIFGAGTTLTV
# notes: Chicken hybridoma antibody; also called anti-CAPRIN-1 chicken monoclonal antibody #1
# Target: T1, human CAPRIN-1 expressed on the surface …
# Assay: cell-based or functional assay
Binder,ADCC cytotoxic activity (51Cr release) against Caki-2 [%],ADCC cytotoxic activity (51Cr release) against HCT-116 [%],ADCC cytotoxic activity (51Cr release) against MCF7 [%],ADCC cytotoxic activity (51Cr release) against MIAPaCa-2 [%],ADCC cytotoxic activity (51Cr release) against QG56 [%],ADCC cytotoxic activity (51Cr release) against all other cancer cell lines listed [%]
B1,< 8,< 3,< 5,7,< 5,< 4
B2,< 8,< 3,< 5,7,< 5,< 4
B3,< 8,< 3,< 5,7,< 5,< 4
B4,< 8,< 3,< 5,7,< 5,< 4

# Target: T2, partial CAPRIN-1 polypeptide consisting …
# Assay: peptide ELISA, culture supernatant
# Experimental: The obtained mouse monoclonal antibodies #2 and #3 were examined for their specific reaction with the amino acid sequence of SEQ ID NO: 5 as a partial CAPRIN-1 sequence used as an immunogen. A 30 μg/ml solution of the amino acid sequence of SEQ ID NO: 5 prepared with a 0.1 M aqueous sodium carbonate solution and a partial CAPRIN-1 sequence free from the amino acid sequence of SEQ ID NO: 5 were each added to a 96-well plate Immobilizer Amino for ELISA (Nunc) at […] and reacted for one whole day and night at 4° C. to bind the peptides to the wells. A 0.1 M aqueous sodium carbonate solution containing 10 mM ethanolamine was added to the peptide-bound wells and left to stand at room temperature for 1 hour. The solution in each well was removed, and each well was then washed with PBS-T. Then, a Blockace solution was added thereto at 400 μl/well and left to stand at room temperature for 3 hours. The solution in each well was removed, and each well was washed with PBS-T. Then, the culture supernatant containing the mouse monoclonal antibody #2 was added thereto at […] and reacted at room temperature for 1 hour. […] The absorbance was measured at 450 nm and 595 nm using an absorption spectrometer.
row,Binder,binding result
1,B5,binds

# Target: T1, human CAPRIN-1 expressed on the surface …
# Assay: flow cytometry on the listed human cancer cell lines, culture supernatant, against secondary antibody only
# Experimental: 10⁶ cells of each cell line were centrifuged in each 1.5-ml microcentrifuge tube. Each culture supernatant (100 μl) containing any of the antibodies #1, #2, and #3 and the chicken monoclonal antibodies #1, #2, #3, and #4 was added to the tube and left to stand for 1 hour on ice. After washing with PBS, FITC-labeled goat anti-mouse IgG (H+L) antibodies (manufactured by Jackson ImmunoResearch Laboratories, Inc.) diluted with PBS containing 0.1% FBS for the mouse-derived antibodies or FITC-labeled goat anti-chicken IgG (H+L) antibodies (manufactured by SouthernBiotech) diluted 100-fold with PBS containing 0.1% FBS for the chicken-derived antibodies were added thereto and left to stand at 4° C. for 30 minutes. After washing with PBS, the fluorescence intensity was measured using FACSCalibur (Becton, Dickinson and Company). The negative control used was cells reacted only with secondary antibodies. As a result, all the cells each treated with any of the antibodies #1, #2, and #3 and the chicken monoclonal antibodies #1 to #4 had fluorescence intensity at least 35% stronger than that of the negative control. […] The rates of enhancement in the fluorescence intensity was expressed as the rates of increase in mean fluorescence intensity (MFI) in respective cell lines, which are calculated according to the following formula.
row,Binder,rate of increase in mean fluorescence intensity [%]
1,B6,≥ 35
2,B7,≥ 35
3,B5,≥ 35
4,B8,≥ 35
5,B9,≥ 35
6,B10,≥ 35
